Laboratory results as given in the supplement of paper PMC12042874.
± gives the uncertainty stated by the source.

Assay: amyloid nucleation score (Sup35N fusion, yeast selection) (log enrichment); library NNK2; higher = more nucleation; inactive = no reads after selection
Outline: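 DiMSum was used to calculate nucleation scores as log enrichment of output over input reads, centred on the mode score of non-aggregating sequences. Sequences with fewer than 100 input reads were not scored. Input and output came from Illumina sequencing of plasmid inserts in psi-negative yeast expressing peptides of 20 random codons fused to Sup35N, induced 24 hours with 100 μM copper sulfate and then grown 7 days at 30°C on medium lacking adenine and uracil.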

LLFMVIFDRECRVIIHCGTM and LLFQNLIRRLCSMCQFGGCV are within error of each other in amyloid nucleation score: -0.21 ± 0.34 for the first, -0.531 ± 0.46 for the second.

LLFVCVFYVYSSPDNHILAM and LLHSSYIIK are within error of each other in amyloid nucleation score: -0.633 ± 1.1 for the first, 0.115 ± 1 for the second.

Compared with LLIFGVVLRVMNVVDPIRDI, LLIINIEMYRCNRLLYIDNN is higher in amyloid nucleation score: -1.13 ± 0.55 for the first, 3.15 ± 0.097 for the second.

LLITR and LLLGTSVDVFL are within error of each other in amyloid nucleation score: -0.183 ± 1 for the first, 0.07 ± 0.74 for the second.

Going from LLLLWYRNQPHITDAFRQEL to LLNFMCIYYEWFQRSAEHAT, the amyloid nucleation score falls from 0.733 ± 0.44 to -0.605 ± 0.76.

LLNYTRGACCDRTRVQFSTT and LLQKFVMGGEVRRESGGVRC are within error of each other in amyloid nucleation score: -0.079 ± 0.76 for the first, 0.726 ± 0.25 for the second.

LLRAT and LLRILANQLKYYETTLCVGG are within error of each other in amyloid nucleation score: 0.598 ± 0.23 for the first, -0.27 ± 1.1 for the second.

First: LLSPYMLRLMV
Second: LLSSFIALSWCWRWFKHSS
The amyloid nucleation score of the first is lower: -0.299 ± 0.79 for the first, 4.972 ± 0.045 for the second.

Going from LLSVASRLLVPFRERGNGS to LLVAKYNLEYRMLSCSDNRQ, the amyloid nucleation score rises from -0.256 ± 1.1 to 3.1 ± 0.17.

LLYHVGSTMGKPIYN and LMALTPIVVVYIMGSMDLST are within error of each other in amyloid nucleation score: -0.669 ± 1 for the first, -0.436 ± 1.1 for the second.

Going from LMCNKESSNPICGLWVCFWA to LMCTSAKSADMSH, the amyloid nucleation score falls from 9.489 ± 0.037 to 0.992 ± 0.6.

Compared with LMFMLRYPLHASWLGSTHVY, LMIVKMTMFDATGHVGFLMV is higher in amyloid nucleation score: 0.422 ± 0.44 for the first, 2.82 ± 0.071 for the second.

LMLLYIRSKYGEFVWIPKVH and LMLTCKLSFPGLVNLSCSPI are within error of each other in amyloid nucleation score: -0.021 ± 0.54 for the first, -0.84 ± 0.34 for the second.

LMLVVQALNHAYLLQVMSCT and LMPDSCSNPRWKTEVLTIRG are within error of each other in amyloid nucleation score: 0.805 ± 0.67 for the first, -0.199 ± 1.1 for the second.

LMSQCT and LMTSYLRSPDSAPETLRE are within error of each other in amyloid nucleation score: -0.926 ± 0.64 for the first, -0.484 ± 0.49 for the second.

LNALIHYVER and LNCYFGHRDPIFSRMNICDY are within error of each other in amyloid nucleation score: 0.842 ± 0.42 for the first, -0.469 ± 1.1 for the second.

LNDGPEGTCWSPNGVNSLLH and LNDHNFLCPLTYKVRRLYNN are within error of each other in amyloid nucleation score: -0.382 ± 0.76 for the first, -1.53 ± 0.53 for the second.

LNFWLHD and LNHGNMEYWLSMDVINLSQI are within error of each other in amyloid nucleation score: 0.09 ± 1 for the first, 0.238 ± 0.3 for the second.

Going from LNHKDICFARNLVRVREGHN to LNISFSDSLSRLVV, the amyloid nucleation score falls from 0.809 ± 0.38 to -0.935 ± 1.1.

LNLLK and LNQNPLFTN are within error of each other in amyloid nucleation score: -1.18 ± 1.1 for the first, -0.11 ± 0.76 for the second.

LNRDFMVHLSCGTWPSARKW and LNSMTILLSN are within error of each other in amyloid nucleation score: 0.067 ± 0.5 for the first, 0.54 ± 0.56 for the second.

LNTTLLTRPVLSSYRGSTAE and LNVDGAFGKTAWYFRFVIQV are within error of each other in amyloid nucleation score: 1.23 ± 0.45 for the first, -0.127 ± 1 for the second.

First: LNVGPQGYMCGSPLYDHCG
Second: LPFMECC
The amyloid nucleation score of the first is higher: 2.73 ± 0.076 for the first, -0.696 ± 1 for the second.

First: LPGQGIWWHICIEG
Second: LPNRVNDRDAEYHVMLLCK
The amyloid nucleation score of the first is higher: 1.24 ± 0.14 for the first, 0.095 ± 0.27 for the second.

Compared with LQASIIAMVRGRTNDSFLED, LQCYPWIYGGSGHPYRFWNL is lower in amyloid nucleation score: 2.7 ± 0.21 for the first, -0.331 ± 0.8 for the second.

Going from LQHYDLGSCSCRWVLVTSDK to LQMPVVF, the amyloid nucleation score falls from 0.584 ± 0.22 to -0.577 ± 0.26.

Compared with LQSTILIYVVNFFTTGIMGK, LQVVVMFCPSL is higher in amyloid nucleation score: 1.75 ± 0.11 for the first, 8.29 ± 0.024 for the second.

LRAGLMHGWMRFRCTRVACV and LRFMNPRSALRYTKVSCTGN are within error of each other in amyloid nucleation score: -0.914 ± 0.64 for the first, -0.587 ± 0.54 for the second.

Compared with LRKALIDAFRT, LRKIYFWWAATNALLEMRGW is lower in amyloid nucleation score: 2.18 ± 0.066 for the first, 0.057 ± 0.38 for the second.

LRKPSTIFEHDAKNSRV and LRNFSYIRQGGSRVSSASGY are within error of each other in amyloid nucleation score: -0.67 ± 0.79 for the first, -1.18 ± 1.1 for the second.

Compared with LRNGVPDADASSRYFWAAEW, LRQGPTHFLYLGCYFVDAMR is higher in amyloid nucleation score: 0.712 ± 0.24 for the first, 7.119 ± 0.066 for the second.

LRRKEVKWLCL and LRSGGLFRDIMCRRDYVRCF are within error of each other in amyloid nucleation score: 0.754 ± 0.47 for the first, 1.23 ± 0.32 for the second.

Compared with LRSLINCYAKVICRTYRFVG, LRSQSHR is higher in amyloid nucleation score: -0.885 ± 0.61 for the first, 1.31 ± 0.33 for the second.

First: LRSWEGLSQAWRPCCVILHN
Second: LRTSSSYSFLEYIRS
The amyloid nucleation score of the first is higher: 0.48 ± 0.34 for the first, -1.08 ± 1 for the second.

Going from LRVGSCNVTSLMGNLVGLDS to LRVMSSISDDNAQEFDDFCV, the amyloid nucleation score rises from 1.37 ± 0.42 to 3.75 ± 0.062.

Compared with LRVQGGWL, LRYNADMVGCKFWWIPVWSL is lower in amyloid nucleation score: 1.49 ± 0.34 for the first, -0.843 ± 0.42 for the second.

Going from LRYRVMT to LSAKWCTECNLAASRRLNIN, the amyloid nucleation score falls from 1.23 ± 0.52 to 0.034 ± 0.32.

First: LSDAMILNLRAIFSSISLLQ
Second: LSDFEIFTLTIHSHLYHN
The amyloid nucleation score of the first is lower: -0.86 ± 0.78 for the first, 1.66 ± 0.24 for the second.

First: LSEFDHYDWVSSSTLFGFCC
Second: LSESRRQVASASDLMKRRIP
The amyloid nucleation score of the first is lower: -1.13 ± 1.1 for the first, 1.24 ± 0.66 for the second.

LSFFSLSIQSCMHGSLKIDS and LSFLKVW are within error of each other in amyloid nucleation score: -0.294 ± 1.1 for the first, -0.654 ± 0.36 for the second.

LSFPHVLYFETCPCMARVVA and LSGLRSFLRRWRGQVKPVLV are within error of each other in amyloid nucleation score: -0.081 ± 1.1 for the first, -0.133 ± 1 for the second.

LSGSY and LSHEFMIEW are within error of each other in amyloid nucleation score: -0.305 ± 1.1 for the first, -0.19 ± 0.62 for the second.

LSKHPYGCVL and LSMEVRGMVATMVVTWNFVS are within error of each other in amyloid nucleation score: 0.862 ± 0.66 for the first, 0.07 ± 0.32 for the second.

Compared with LSRWKDRSRGWRGDAAPRIR, LSSVILVLNNSVAFYILDAG is higher in amyloid nucleation score: 0.539 ± 0.56 for the first, 3.83 ± 0.09 for the second.

Going from LSTCCVKVVVCRDFIIVDKF to LSVCLHHHNIAWDRCSGR, the amyloid nucleation score falls from 6.57 ± 0.039 to -0.469 ± 0.37.

LSVSDEVRQV and LSYYKVIWGHLMVKYPTYRQ are within error of each other in amyloid nucleation score: -0.466 ± 0.79 for the first, -0.177 ± 0.32 for the second.

Going from LTAGVYSSSWSDVS to LTATLAFLVSCFYCSL, the amyloid nucleation score rises from 1.4 ± 0.14 to 6.95 ± 0.028.

First: LTCLFPFWRWCIPAAIEFRR
Second: LTEDTMFG
The amyloid nucleation score of the first is higher: 0.901 ± 0.28 for the first, -0.573 ± 0.76 for the second.

Compared with LTEVVMAILFSDDSRYIFCG, LTFGCG is lower in amyloid nucleation score: 1.41 ± 0.16 for the first, -0.903 ± 0.36 for the second.

LTFLYGVGVRFCRPSLVVQS and LTGCAKLGSLKLSLAPVYVD are within error of each other in amyloid nucleation score: 0.2 ± 0.24 for the first, 0.811 ± 0.82 for the second.

Going from LTGLFAGLKGKCLFTVNRGI to LTLCSFRCTKLMR, the amyloid nucleation score rises from -0.318 ± 0.44 to 1.11 ± 0.25.

First: LTLHAVWI
Second: LTMLPDNVPTKALFSYLSVT
The amyloid nucleation score of the first is higher: -0.022 ± 0.27 for the first, -1.24 ± 0.76 for the second.

Going from LTPEFSVCGCRTEG to LTPLICADNLD, the amyloid nucleation score falls from 2.65 ± 0.072 to -0.526 ± 0.35.

Compared with LTPNCGKVGGRMRGRILSGV, LTRRVGIFFHFG is higher in amyloid nucleation score: 0.787 ± 0.3 for the first, 4.74 ± 0.05 for the second.

Going from LTTSFANAWHFNFLGRPLH to LTYLVADLL, the amyloid nucleation score falls from 2.18 ± 0.18 to -0.142 ± 0.79.

LVAALRV and LVAHPLYGSTKWGN are within error of each other in amyloid nucleation score: -0.452 ± 0.39 for the first, -0.596 ± 0.79 for the second.

First: LVCYLMTMNSNGARSRGVPF
Second: LVFRGAVCDITRAG
The amyloid nucleation score of the first is higher: 5.99 ± 0.063 for the first, -0.682 ± 0.76 for the second.

First: LVFTCGWSDTRE
Second: LVKCSVSVRGEILRFLRYMA
The amyloid nucleation score of the first is higher: 5.08 ± 0.089 for the first, 0.26 ± 0.22 for the second.

LVNSKYDLGSSGSFDNRFAC and LVQMLVSV are within error of each other in amyloid nucleation score: -0.242 ± 0.63 for the first, -0.342 ± 1 for the second.

LVRGMDFHLNLDEKFFSATL and LVRVGDFG are within error of each other in amyloid nucleation score: -1.05 ± 0.56 for the first, -0.267 ± 0.54 for the second.

With LNFIRCYVSPCVSFLSLYII the amyloid nucleation score was “inactive”.
For LNILHNFRKRTLFAAMFVLR, the amyloid nucleation score was “inactive”.
With LNMVLDF the amyloid nucleation score was “inactive”.
In the case of LRMHFMMWTRRVNLVRHGNN, the amyloid nucleation score is reported as “inactive”.
With LSDCE the amyloid nucleation score was “inactive”.
In the case of LTATFTNMGCTTGSKCLM, the amyloid nucleation score is reported as “inactive”.
In the case of LVHYFICHVPFLIFRYDKVT, the amyloid nucleation score is reported as “inactive”.
For LVKCRGATCLIVTSDRLLYV, the amyloid nucleation score was “inactive”.
With LVQMISKILYNEE the amyloid nucleation score was “inactive”.
